This passage reports Kd results from article PMC9943895.

What is called Kd is a measure of binding affinity in units of concentration. Low readings indicate a tighter complex, high ones a looser complex.

In this assay the target is proteasomal core particle (WT) (yeast (endogenous)) (UniProt P21243). Briefly: stimulation of CP peptidase activity (suc-LLVY-AMC) by titrated base; base titrated against 2 nM CP, preincubated 15 min at 30 °C; 5 μM suc-LLVY-AMC; initial rates fitted to a hyperbola (Michaelis–Menten); surrogate readout for base–CP interaction.

For the substance “base subcomplex purified from nas6Δ rpt3-Δ3 cells, P38764 1-993; P32565 1-945; O13563 1-156; P33299 1-467; P40327 1-437; P33298 1-428; P53549 1-437; P33297 1-434; Q01939 1-405”, the Kd came out at 145 nM. “base subcomplex purified from nas6Δ cells (WT Rpt3), P38764 1-993; P32565 1-945; O13563 1-156; P33299 1-467; P40327 1-437; P33298 1-428; P53549 1-437; P33297 1-434; Q01939 1-405” yielded a Kd of 36 nM.
